{"source": "the DeepSol protein solubility set", "data": [{"assay": "soluble on expression in E. coli; label from the status in PepcDB or PDB records", "values": [{"sequence": "MSLSKNRNIIEGRILSFDKSPFSKDFDLSSLKIDKKRIFIIDGIIESIEPVNFINPEFQDIEIIDYGDHLISAGFVDAHVHYPQTAIVASWGKRLIDWLNTYTFPEEMRFSNLNYASEIAARYIDFSLSNGTTTMASYCTIHPESVDAFFKSAAVKNMCVVGGKTCMDRNAPGDLCDSAKSAYDDSKALLQKWHHKGRAHYAITPRFSPTSTPDQLLALGSLWSEFPGCLMQTHLSEQVDEIDWVRKLFPNARDYLDTYETFGLLGERGVYGHAIHLEAREIDRLSEVGASLIHCPTSNTFIGSGLFNMEDLTSRSLKVGLASDIGGGSSFSMLRTMAGAYEVAQLRGLALHPSQLMWLATQGSAKALHLDNQIGNIAPGMAADLVVLDLSSTPTISQRSARANDVWEELFPTIMMGDDRAIAATYVAGKKIEGHHHHHH", "soluble on expression in E. coli": "soluble"}, {"sequence": "SEADASVDMFSKVLEHQLLQTTKLVEEHLDSEIQKLDQMDEDELERLKEKRLQALRKAQQQKQEWLSKGHGEYREIPSERDFFQEVKESENVVCHFYRDSTFRCKILDRHLAILSKKHLETKFLKLNVEKAPFLCERLHIKVIPTLALLKDGKTQDYVVGFTDLGNTDDFTTETLEWRLGSSDILNYSGNLMEPPFQNQKKFGTNFTKLEKKTIRGKKYDSDSDDD", "soluble on expression in E. coli": "soluble"}, {"sequence": "MAHHHHHHMSSPERGASPPPAEEDKKEKRVIIILEGAHLQLIETKRYIYELANSMKHKHLLRDKKKEEEIRNFRPDILHQCLIHLLESALNKYGLLQVYIKTHDNQLFFVSSNLKIPKTYDQFESLMVTFLRKYKIKANEKNLCLLKFLKNDYNAILPINGKKIGLSVKGRKVHLPDYVQNFQNENMPVTFFIGAVAYSNPITKLENLDDNISISEFSLSAATCCSTICSEFENLWGVF", "soluble on expression in E. coli": "soluble"}, {"sequence": "MGSDKIHHHHHHMMTSSEIKRIATYVEKGGVGKTTSAAHIAVAAHNRGHEVLLVDLAGTQNDLATHFGLSIVDEEATDDGVSIDAPISAVFGDDWAFLRDNIDDLLDRMTFPTDEGPDLIPADPGLGGADNNLANVPLEERYQKLDGFVEDLVADKYDLVIFDLPGKEDNIALNGLFAARNVVAPLKPGAFERDQLQKLDATLEEISADLDVDLGLALIIPTIISSQETLSESFVEYVTEEYPEIVGEPVTKTADIGNNQNAGRTLFAVPDDELYATGKRAREAYSANTEQLLSRLTDR", "soluble on expression in E. coli": "not soluble"}, {"sequence": "MATRLNISFDSDLLESISSEFDLRAPNKEALRQLVFTLDGDYEPSIMQVLNLATGVGKTYLMAAFVEYLRRQGVGNVVIVTPGKTVQAKTVQNFTPGSPRYITGSVVPPEVVTPQDYSAWVARQNGAAQLSFGHEVPILAFIFNIQQLIAPKSTEGDTHGNTQDAMRRKPRRFDENAGVLFDYLKGLDDLVVIADESHLYGSSAIAFNAALKELDPAATIGLTASVDKKSDHVIYHYPLFRAIQDKYVKAPVLAFRKTGYGTDEASEEQQLRDALQLRSIKQVYYDSFAASENRKHVNAVVFVVCSDVDHATQVTELLRSPEYLGNDDAVLQVDSKHEDELTQRRLNELDRPHSPVLAVVSVNKLKEGWDVRNIAVVVTLRAMASEVLTQQTMGRGLRLPFGHYTGVWQIDQLDIIAHQSFTELLNAENVLHQFGLEEAVADLDKAQVEAAILKAAETATSPRLGTSLTDTGVIQPGDVAAHEAGVWLIGDSSNSDDLQAGIVPVGGENSTRTPSVGVREITDPAPEGGTGWELVSIERNPAFADVTYQFPVTTMTVQQPSIDLSEIGDDTIEQAARRVTSAGDVLLRKEIIAVLGKKLRAEDRESAEVDSVHVDEDDAKNALVKLVLNMSLVPKTEQTARYVAAFLVPKFMQSVMFSGWTVKSLDSARTELLKLIQNYTVETLRSTREVPSIHPKSMPSNGYTLPLGQKVHDQIETREQFVRSQVYGGWFKSLFAEESFDSFTGEYQLARLLNTSPGIVWWHRLHPQDQAFVFYNAKDRYFPDFVAMDVNGVHWIIEGKSERGRDDAQVQAKRKAAEALVRRLVAEDAYADQLWGYLIAYEQDIARADSWEDLKAFASPVNNAL", "soluble on expression in E. coli": "not soluble"}, {"sequence": "MQENSPLLQLQNVGYLAGDAKILNNINFSLRAGEFKLITGPSGCGKSTLLKIVASLISPTSGTLLFEGEDVSTLKPEIYRQQVSYCAQTPTLFGDTVYDNLIFPWQIRNRQPDPAIFLDFLERFALPDSILTKNIAELSGGEKQRISLIRNLQFMPKVLLLDEITSALDESNKHNVNEMIHRYVREQNIAVLWVTHDKDEINHADKVITLQPHAGEMQEARYELA", "soluble on expression in E. coli": "not soluble"}, {"sequence": "MAHHHHHHMATASPSLSSNCFIDAATYFESRRGRRTFPERNASQILLGDASANSPIEEEEGLVRRQAQASAPVAWQQQQQQRHQQMRPTRRPRGPGIAFAARIEASGFPAAASRRSACADVVPECLYQYDTSELRTHKRPAQMPNRVKQCDRNLQLFLRPEEQVVRSAAAAVMLGESRDGQLSYSRYPSSQAHEHSKDPRMTADAIEASSSPFSDSAPHDQAMMTDRRSCLPYAPAAELDDSLLLKESLSSDRLRLLEHLYQRERSRLRGASRSVERDVGAVAEEDARAWHGQAPVSSLPWGTTVLPFRHGDSADVAANLPSLRRRAERSSVRRDDGDGAVHAHPLQGRDWQPWERKYACEAHPVTPRTRSSFHASSQIADSNERSDNDNDRNGGVDYTHAKSFGNATCSANWRCASASHRRRVTGSYDDFSDSTEARNEPPKHTTRIGSRMAMADAAPRVPHISAWFAPLRNDRVARQAHHTRSADHARASHSLRGEKERQAGQLQRHISAASPSVQGSSSSTAAGARPVETSPAASARTQATVTLSDVCTHQPLRAPSLQQRQHGKLAGSAASSPLFPTSSARVQGRDDAALTLRDVCGALNTAAVVM", "soluble on expression in E. coli": "not soluble"}, {"sequence": "MTPSRPSPDFPDGGFVQVRGARQHNLKDISVKVPRDALVVFTGVSGSGKSSLAFGTLYAEAQRRYLESVSPYARRLFNQAGVPDVDAIDGLPPAVALQQARGTPTARSSVGSVTTLSNLLRMLYSRAGDYPPGQGIVYAEGFSPNTPEGACPECHGLGRVYTVTEDSMVPDPSLTIRERAVAAWPQAWGGQNQRDILVTLGIDVDVPWRELPEETRHWILFTDEQPVVPVYPGLTPAETQRALKKKMEPSYMGTFSSARRHVLHTFANTESASMKKRVQGYMISEECPLCHGKRLRQEALNVTFAGLDITELSRLPLARVSELLRPYAEEREPGHAERVKNRPEQAIALQRMAADLVKRLDVLLHLGLGYLGLDRSTPTLSPGELQRLRLATQLYSNLFGVVYVLDEPSAGLHPADTEALLSALENLKRGGNSLFVVEHDLDVIRRADWLVDVGPEAGEKGGEILYSGPPEGLKHVPESQTGQYLFADRHTEPHTPREPAGWLELNGVTRNNLDNLDVRFPLGVMTSVTGVSGSGKSTLVSQALVDALAAHFGQPVNPDPEDDEDPADHTAGSARLGGDLAQITRLVRVDQKPIGRTPRSNMATYTGLFDQVRKLFAATPLAKKRGYNAGRFSFNVKGGRCEHCQGEGWVMVELLFLPSVYAPCPVCHGTRYNAETLEVEYRGKNIADVLALTVDEAHDFFADESAIFRALDTLREVGLGYLRLGQPATELSGGEAQRIKLATELRRSGRGGTVYVLDEPTTGLHPADVERLQRQLVKLVDAGNTVIAVEHKMQVVAASDWVLDIGPGAGEDGGRLVAQGTPAEVAQAAGSVTAPYLRAALR", "soluble on expression in E. coli": "soluble"}, {"sequence": "MVMKLIKRSLLLLGAVLLITLPAYSQNDDIFEDDIYTSRKEIRKQNQVKDWQNQEDGYGDDTEYTVASDRDIDAYNRRDGQSYDGKKLSKDKKRDSTRSSVPGRYSRRLARFYKPNTIVISGADNVYVTDDGEYFVYGDEYYDDASSVNIYINSPWCDPFPYTSWYPSFSGWYNYTWNYPWFYYGSHIGWGGYYPGYNWYWSYYYDPFYNPYGIGMGWGYPYGWGSYYGWGGYPGVIHHYHHYPKKTYSNGQHSGAYYSYGRPNRIKGGTSGAKLGTGRYDRIQNSSSQKNKFGLQSNKPNNNLQNVKSGRTGRANRDRNIETVTPNNGQKQNRPVFQQNQSGNDRPTGRNIRSERQGENNDRTFSTPSRSNSNGGFSTPSRSSSGSMSGGGGRSGRGRN", "soluble on expression in E. coli": "not soluble"}, {"sequence": "MGHHHHHHSHMKSQGQHWYSSSDKNCKVSFREKLLIIDSNLGVQDVENLKFLCIGLVPNKKLEKSSSASDVFEHLLAEDLLSEEDPFFLAELLYIIRQKKLLQHLNCTKEEVERLLPTRQRVSLFRNLLYELSEGIDSENLKDMIFLLKDSLPKTEMTSLSFLAFLEKQGKIDEDNLTCLEDLCKTVVPKLLRNIEKYKREKAIQIVTPPVDKEAESYQGEEELVSQTDVKTFLEALPQESWQNKHAGSNGNRATNGAPSLVSRGMQGASANTLNSETSTKRAAVYRMNRNHRGLCVIVNNHSFTSLKDRQGTHKDAEILSHVFQWLGFTVHIHNNVTKVEMEMVLQKQKCNPAHADGDCFVFCILTHGRFGAVYSSDEALIPIREIMSHFTALQCPRLAEKPKLFFIQACQGEEIQPSVSIEADALNPEQ", "soluble on expression in E. coli": "not soluble"}, {"sequence": "MAGHVNGTCAPVIPKVGDEEDGVGQLVANLKEKGTNFVLLKKTPQILELQTILKDRSTNHSDFVFNADRLMRLVIEECLNHLPFTEHTVTTPTGFKYEGIQFNRGNCGVSLCRSGEAMEVSLRQCCRCIRIGKILIGDEQKVLYARLLPDITSRRVLLLYPTIGSGTTVCKAIEVLKEARVPDENIYLVSLFISPTGLKNITRKYPYITVVASDITSLYPNHFSTSYFGAV", "soluble on expression in E. coli": "not soluble"}, {"sequence": "MVSFVNCRSQIKTNMQEQNNPLLCNPESGFCEMPSIKPDTAHQADLKSDKKPVKVIYYTDPICSSCWGIEPQLRKLKLEYGTSIDIEYRMGGLLPDWSYNSGGISKPSDVAHHWDEVSVYYDMPIDGGVWLEDPLPSSYPPSIAFKAVQIQSTERAILFLREIREMVFLQKKNIAKWEHLEQAAKNTGVNIEQFKKDYEGRAKDLFYADLKLARDLGVHGFPTMIFSDSTGKNETVYGYKPYAVFENTIAGLYPSVQKYTYDKSIAAVFSTFHSLTAKEFSELTGVARNQSEQMLDEYVKQGMLQKWTTKNGSLWSLKK", "soluble on expression in E. coli": "not soluble"}, {"sequence": "MPVAHVALPVPLPRTFDYLLPEGMTVKAGCRVRVPFGKQQERIGIVVSVSDASELPLNELKAVVEVLDSEPVFTHSVWRLLLWAADYYHHPIGDVLFHALPILLRQGRPAANAPMWYWFATEQGQAVDLNSLKRSPKQQQALAALRQGKIWRDQVATLEFNDAALQALRKKGLCDLASETPEFSDWRTNYAVSGERLRLNTEQATAVGAIHSAADTFSAWLLAGVTGSGKTEVYLSVLENVLAQGKQALVMVPEIGLTPQTIARFRERFNAPVEVLHSGLNDSERLSAWLKAKNGEAAIVIGTRSALFTPFKNLGVIVIDEEHDSSYKQQEGWRYHARDLAVYRAHSEQIPIILGSATPALETLCNVQQKKYRLLRLTRRAGNARPAIQHVLDLKGQKVQAGLAPALITRMRQHLQADNQVILFLNRRGFAPALLCHDCGWIAECPRCDHYYTLHQAQHHLRCHHCDSQRPVPRQCPSCGSTHLVPVGLGTEQLEQTLAPLFPGVPISRIDRDTTSRKGALEQQLAEVHRGGARILIGTQMLAKGHHFPDVTLVALLDVDGALFSADFRSAERFAQLYTQVAGRAGRAGKQGEVVLQTHHPEHPLLQTLLYKGYDAFAEQALAERRMMQLPPWTSHVIVRAEDHNNQHAPLFLQQLRNLILSSPLADEKLWVLGPVPALAPKRGGRWRWQILLQHPSRVRLQHIINGTLALINTIPDSRKVKWVLDVDPIEG", "soluble on expression in E. coli": "soluble"}, {"sequence": "MRNSLFTTLFFGLAALVMVLNAQYTSELEEDEKRGGARAMLHKRGGARAFSADVGDDYKRGGARAFYDEKRGGARAFLTEMKRGGARVFQGFEDEKRGGARAFMMDKRGGGRAFGDMMKRGGARAFVENSKRDEDWVIRPFEDDRLEKRGGGRSFPVKPGRLDD", "soluble on expression in E. coli": "not soluble"}, {"sequence": "MGSDKIHHHHHHMIFTLPNTTTQEIAKTLVKIRDTGGQVTTSRVLTLIVVARDTSDVEGIIRATNEASQEHPSRVIILVAGSHEGESQVDAEVRIGGDAGASEMILIKLAGRVAKHLVHVVTPLLLPDTPIVAWWPSSAPINPAEDPIGKIAQRRITDSHFDPPVDALYNRRNHYAPGDSDFSWARLTPWRGVLASSLDQAPYEMVQDVRVYGESDCPSVDLAAGWLCERLGISVERHNYGSGSAAFDDAGLAKIPVKRIELERPSGCVVIEALDDDQTLSVSIPGRSTAHVAVTRRSQADCLAEELRHLDPDIAYARALRGLSRVSYPTQ", "soluble on expression in E. coli": "not soluble"}]}]}
